The values below come from US20200338203A1 (Bicycle, published 2020).

In assay [1] the target is T1, Human EphA2 (Ecto) (Human, UniProt P29317 24-537).
T1 construct: extracellular domain
As to the kind of experiment: FP competition; competitor Compound 18. How it is done:
(§1) Peptides without a fluorescent tag were tested in competition with a peptide with a fluorescent tag and a known Kd (Table 2). Peptides were diluted to an appropriate concentration in assay buffer as described in the direct binding assay with a maximum of 5% DMSO, then serially diluted 1 in 2. Five μL of diluted peptide was added to the plate followed by 10 μL of human or mouse EphA2 (Table 1) at a fixed concentration which was dependent on the fluorescent peptide used (Table 2), then 10 μL fluorescent peptide added. Measurements were conducted as for the direct binding assay, however the gain was determined prior to the first measurement.

For assay [2], the target named is T1, Human EphA2 (Ecto). As to the kind of experiment: FP competition; competitor Compound 66. How it is done:
as §1

Numbered stars: 1 amine (or outer) side, 2 acyl side, 3 side chain; on linkers, the order of the positions; unused ones are H or OH. Bridge positions count the residues as written; N and C are the ends. Square brackets hold non-standard residues; d marks the D form. Ends that are not written are not given here. ThiAz = 3-(1,2,4-triazol-1-yl)-alanine, O=C([C@H](Cn1cncn1)N[*:1])[*:2]; Ala(2-furyl) = N[C@@H](Cc1ccco1)C(=O)O; 1Nal = N[C@@H](Cc1cccc2ccccc12)C(=O)O; TBMB = c1c(C[*:1])cc(C[*:3])cc1C[*:2]; hArg = N=C(N)NCCCC[C@H](N)C(=O)O; Tle = CC(C)(C)[C@H](N)C(=O)O; Pip = O=C(O)[C@@H]1CCCCN1; Aze = O=C(O)[C@@H]1CCN1; Aib = CC(C)(N)C(=O)O; azaGly = NNC(=O)O; βAla = NCCC(=O)O; Sar = CNCC(=O)O

T1 sequence (P29317 24-537): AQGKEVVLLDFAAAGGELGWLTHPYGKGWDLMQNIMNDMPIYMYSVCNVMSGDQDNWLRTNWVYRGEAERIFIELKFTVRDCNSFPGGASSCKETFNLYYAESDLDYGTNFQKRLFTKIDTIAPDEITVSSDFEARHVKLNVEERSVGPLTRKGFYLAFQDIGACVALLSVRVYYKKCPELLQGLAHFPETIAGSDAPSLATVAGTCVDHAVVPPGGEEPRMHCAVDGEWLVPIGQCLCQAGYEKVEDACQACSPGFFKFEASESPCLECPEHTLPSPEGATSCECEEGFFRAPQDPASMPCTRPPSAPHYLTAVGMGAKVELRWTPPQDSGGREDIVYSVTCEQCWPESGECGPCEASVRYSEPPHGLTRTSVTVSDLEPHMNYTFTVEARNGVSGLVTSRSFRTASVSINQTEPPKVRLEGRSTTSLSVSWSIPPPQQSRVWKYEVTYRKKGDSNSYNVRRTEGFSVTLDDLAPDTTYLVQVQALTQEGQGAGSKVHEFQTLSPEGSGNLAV

By Ki is commonly meant a measure of affinity in units of concentration, obtained from inhibition or displacement. On to Ac-[Sar][Sar]A[dH]DVCPWGPFWCPVNRPGC (linker 7-14-21 via TBMB) [Compound 198], for which the inhibition constant (Ki) with Human EphA2 (Ecto) [1] worked out at 20 nM.
Turning to Ac-[Sar][Sar]AH[dD]VPCP[1Nal]GPFWCP[Tle]N[hArg]PGC (linker 8-15-22 via TBMB) [Compound 227], the Ki with Human EphA2 (Ecto) [1] amounted to 0.75 nM.
For [Sar][Sar]AH[dD]VPCPWGPFWCPVNRPGC (linker 8-15-22 via TBMB) [Compound 209], the inhibition constant Ki with Human EphA2 (Ecto) [1] worked out at 1.25 nM.
The same measure, in the same setting: with [Sar][Sar]AHD[dA]PCPWGPFWCPVNRPGC (linker 8-15-22 via TBMB) [Compound 215] the figure was 26 nM.
The same measure, in the same setting: with Ac-[Sar][Sar]H[dD]VPCPWG[Aib]F[1Nal]CPVNR[Aib]GC (linker 7-14-21 via TBMB) [Compound 268] the figure was 1.24 nM.
With Ac-[Sar][Sar]AH[dD][Tle]PCPWGPFWCPVNRPGC (linker 8-15-22 via TBMB) [Compound 211], in the assay with Human EphA2 (Ecto) [1], the inhibition constant Ki was found to be 3.1 nM.
The same measure, in the same setting: the same measure for Ac-[Sar][Sar]H[dD]VPCP[1Nal]G[Aib]F[1Nal]CPVNR[Aib]GC (linker 7-14-21 via TBMB) [Compound 261]: 0.63 nM; for Ac-[Sar][Sar]A[dD]DVPCPWGPFWCPVNRPGC (linker 8-15-22 via TBMB) [Compound 200]: 4.1 nM; for Ac-[Sar][Sar]A[dD]DVTCP[1Nal]GPF[1Nal]CPVNRPGC (linker 8-15-22 via TBMB) [Compound 283]: 0.28 nM.
Still for that read-out and setting: with Ac-[Sar][Sar]AH[dD]V[Sar]CPWGPFWCPVNRPGC (linker 8-15-22 via TBMB) [Compound 212] the figure was 4.95 nM; with Ac-[Sar][Sar]A[dH]D[Tle]PCPWGPFWCPVNRPGC (linker 8-15-22 via TBMB) [Compound 204], 2.15 nM; with [βAla][Sar][Sar][Sar][Sar][Sar][Sar][Sar][Sar][Sar][Sar]H[dD]VPCPWG[Aib]FWCP[Tle]N[hArg]P[dD]C (linker 16-23-30 via TBMB) [Compound 271], 3.66 nM.
Turning to [Sar][Sar]AHDV[Aib]CPWGPFWCPVNRPGC (linker 8-15-22 via TBMB) [Compound 220], the Ki with Human EphA2 (Ecto) [1] was 0.83 nM.
The same measure, in the same setting: the same measure for Ac-[Sar][Sar]A[dD]DVTCP[1Nal]GPFWCPVNRPGC (linker 8-15-22 via TBMB) [Compound 282]: 0.87 nM.
Same read-out and setting: with Ac-[Sar][Sar]A[dH]DVPCPWG[Aib]FWCP[Tle]NR[Aib]GC (linker 8-15-22 via TBMB) [Compound 233] the figure was 4.8 nM; with Ac-[Sar][Sar]A[dH]DVPCPWGPFWCP[hArg]NRPGC (linker 8-15-22 via TBMB) [Compound 229], 5.1 nM.
Still for that read-out and setting: the same measure for AGEMACPWGPFWCPVNRPGCA (linker 6-13-20 via TBMB) [Compound 53]: 12.3 nM.
[Sar][Sar]A[dA]DVPCPWGPFWCPVNRPGC (linker 8-15-22 via TBMB) [Compound 199]: in the assay with Human EphA2 (Ecto) [1], the Ki came out at 3.35 nM.
Ac-[Sar][Sar]H[dD]VPCPWG[Aib]FWCP[Tle]NR[Aib]GC (linker 7-14-21 via TBMB) [Compound 270]: the Ki in the assay with Human EphA2 (Ecto) [1] worked out at 1.52 nM.
Consider [Sar][Sar]A[ThiAz]DVPCPWGPFWCPVNRPGC (linker 8-15-22 via TBMB) [Compound 202], for which, in the assay with Human EphA2 (Ecto) [1], the inhibition constant (Ki) is 0.7 nM.
On to [βAla][Sar][Sar][Sar][Sar][Sar][Sar][Sar][Sar][Sar][Sar]HDVPCPWGPFWCPVNRPGC (linker 16-23-30 via TBMB) [Compound 223], for which, in the assay with Human EphA2 (Ecto) [1], the inhibition constant Ki was determined as 1.29 nM.
The same measure, in the same setting: with Ac-[Sar][Sar]A[dD]DVTCP[1Nal]G[Aib]FWCP[Tle]N[hArg]PGC (linker 8-15-22 via TBMB) [Compound 284] the figure was 3.8 nM; with Ac-[Sar][Sar]A[dH]DVPCP[1Nal]GPFWCP[Tle]N[hArg]PGC (linker 8-15-22 via TBMB) [Compound 230], 1.8 nM; with Ac-[Sar][Sar]AH[dD]V[Aib]CPWGPFWCPVNRPGC (linker 8-15-22 via TBMB) [Compound 213], 1.9 nM.
Same read-out and setting: the same measure for Ac-[Sar][Sar]H[dD]VPCP[1Nal]G[Aib]FWCPVNR[Aib]GC (linker 7-14-21 via TBMB) [Compound 266]: 1.6 nM; for Ac-[Sar][Sar]H[dD]VPCPW[azaGly]PFWCPVNRPGC (linker 7-14-21 via TBMB) [Compound 267]: 0.66 nM; for [βAla][Sar][Sar][Sar][Sar][Sar][Sar][Sar][Sar][Sar][Sar]H[dD]VPCPWGPFWCPVNRPGC (linker 16-23-30 via TBMB) [Compound 226]: 0.84 nM.
On the same count and under the same terms, the same measure for AHDVPCPWGPFWCPVNRPGCA (linker 6-13-20 via TBMB) [Compound 59]: 0.54 nM; for Ac-[Sar][Sar][dH]DVPCPWGPFWCPVNRPGC (linker 7-14-21 via TBMB) [Compound 224]: 1.09 nM.
Take [Sar][Sar]AHD[Aib]PCPWGPFWCPVNRPGC (linker 8-15-22 via TBMB) [Compound 216]: in the assay with Human EphA2 (Ecto) [1], the Ki is 2.77 nM.
[Sar][Sar]AHDV[Pip]CPWGPFWCPVNRPGC (linker 8-15-22 via TBMB) [Compound 222]: the Ki in the assay with Human EphA2 (Ecto) [1] was determined as 3.4 nM.
As to ACMNDWLCSLGWTCA (linker 2-8-14 via TBMB) [Compound 24], in the assay with Human EphA2 (Ecto) [2], the Ki was 82.3 nM.
In the case of ACMNDWLCQLGWTCA (linker 2-8-14 via TBMB) [Compound 30], in the assay with Human EphA2 (Ecto) [2], the inhibition constant Ki was 56 nM.
As to ACPWGPMWCPVNRPGCA (linker 2-9-16 via TBMB) [Compound 46], in the assay with Human EphA2 (Ecto) [2], the inhibition constant (Ki) is 95.8 nM.
Consider [Sar][Sar]A[Ala(2-furyl)]DVPCPWGPFWCPVNRPGC (linker 8-15-22 via TBMB) [Compound 203], for which the inhibitory constant (Ki) with Human EphA2 (Ecto) [1] was found to be 0.49 nM.
On the same count and under the same terms, the same measure for [Sar][Sar]AHD[Tle]PCPWGPFWCPVNRPGC (linker 8-15-22 via TBMB) [Compound 217]: 0.49 nM; for [Sar][Sar]AH[dE]VPCPWGPFWCPVNRPGC (linker 8-15-22 via TBMB) [Compound 208]: 2 nM; for [βAla][Sar][Sar][Sar][Sar][Sar][Sar][Sar][Sar][Sar][Sar]H[dD]VPCP[1Nal]G[Aib]F[1Nal]CP[Tle]NRPGC (linker 16-23-30 via TBMB) [Compound 252]: 0.37 nM.
Take [Sar][Sar]AH[dA]VPCPWGPFWCPVNRPGC (linker 8-15-22 via TBMB) [Compound 206]: the Ki with Human EphA2 (Ecto) [1] is 8.3 nM.
On the same count and under the same terms, the same measure for Ac-[Sar][Sar]AH[dD]VPCPWGPFWCPVNRPGC (linker 8-15-22 via TBMB) [Compound 210]: 1.1 nM; for [Sar][Sar]AHDV[dA]CPWGPFWCPVNRPGC (linker 8-15-22 via TBMB) [Compound 219]: 15 nM.
On the same count and under the same terms, with [Sar][Sar]AHDV[Aze]CPWGPFWCPVNRPGC (linker 8-15-22 via TBMB) [Compound 221] the figure was 3.1 nM; with [βAla][Sar][Sar][Sar][Sar][Sar][Sar][Sar][Sar][Sar][Sar]H[dD]VPCPWGP[hArg]WCP[Tle]N[hArg]P[dD]C (linker 16-23-30 via TBMB) [Compound 272], 3.99 nM.
